Source: article PMC2408616, “Modular Organization and Combinatorial Energetics of Proline–Tyrosine Nuclear Localization Signals” (PLoS Biology, 2008)

B1: MBP–Nab2p NLS [S. cerevisiae] / Kap104p [yeast (S. cerevisiae)] (parent)
chain 1: DNSQRFTQRGGGAVGKNRRGGRGGNRGGRNNNSTRFNPLAKALGMAGESNM
chain 2: MASTWKPAEDYVLQLATLLQNCMSPNPEIRNNAMEAMENFQLQPEFLNYLCYILIEGESDDVLKQHYSLQDLQNNRATAGMLLKNSMLGGNNLIKSNSHDLGYVKSNIIHGLYNSNNNLVSNVTGIVITTLFSTYYRQHRDDPTGLQMLYQLLELTSNGNEPSIKALSKIMEDSAQFFQLEWSGNTKPMEALLDSFFRFISNPNFSPVIRSESVKCINTVIPLQTQSFIVRLDKFLEIIFQLAQNDENDLVRAQICISFSFLLEFRPDKLVSHLDGIVQFMLHLITTVNEEKVAIEACEFLHAFATSPNIPEHILQPYVKDIVPILLSKMVYNEESIVLLEASNDDDAFLEDKDEDIKPIAPRIVKKKEAGNGEDADDNEDDDDDDDDEDGDVDTQWNLRKCSAATLDVMTNILPHQVMDIAFPFLREHLGSDRWFIREATILALGAMAEGGMKYFNDGLPALIPFLVEQLNDKWAPVRKMTCWTLSRFSPWILQDHTEFLIPVLEPIINTLMDKKKDVQEAAISSVAVFIENADSELVETLFYSQLLTSFDKCLKYYKKKNLIILYDAIGRFAEKCALDETAMQIILPPLIEKWALLSDSDKELWPLLECLSCVASSLGERFMPMAPEVYNRAFRILCHCVELEAKSHQDPTIVVPEKDFIITSLDLIDGLVQGLGAHSQDLLFPQGTKDLTILKIMLECLQDPVHEVRQSCFALLGDIVYFFNSELVIGNLEDFLKLIGTEIMHNDDSDGTPAVINAIWALGLISERIDLNTYIIDMSRIILDLFTTNTQIVDSSVMENLSVTIGKMGLTHPEVFSSGAFANDSNWNKWCLSVNALDDVEEKSSAYMGFLKIINLTSTEVTMSNDTIHKIVTGLSSNVEANVFAQEIYTFLMNHSAQISAINFTPDEISFLQQFTS
B2: MBP–Hrp1p NLS [S. cerevisiae] / Kap104p [yeast (S. cerevisiae)] (parent)
chain 1: RDRNDRDRDYNHRSGGNHRRNGRGGRGGYNRRNNGYHPYNR
chain 2: B1 chain 2

Legend:
Assay in all cases: ITC
[1] = variants of: B1; conditions: with Kap104p [yeast (S. cerevisiae)]; for ratio to parent: parent: 1; for dG: parent: -10
[2] = variants of: B2; conditions: with Kap104p [yeast (S. cerevisiae)]
[3] = variants of: B2; conditions: with Kap104p [yeast (S. cerevisiae)]; for Kd: parent: 32 nM; for ratio to parent: parent: 1

Variant: chain 1 R18A R19A R22A R26A R29A P38A L39A
- ratio to parent [1]: > 200

Variant: chain 1 R18K R19K R22K R26K R29K
- ddG [1]: -0.4 kcal/mol
- screen value [1]: -9.9 kcal/mol
- ratio to parent [1]: 0.6
- dG [1]: -10.3 kcal/mol

Variant: chain 1 F36L
- ddG [1]: -0.3 kcal/mol
- screen value [1]: -8.4 kcal/mol
- ratio to parent [1]: 1.8
- dG [1]: -9.7 kcal/mol

Variant: chain 1 R19A Y36A
- screen value [2]: -2.2 kcal/mol/K
- ddG [3]: 0.4 kcal/mol
- screen value [3]: -11.9 kcal/mol
- Kd [3]: 60 nM
- ratio to parent [3]: 1.9

Variant: chain 1 R19A R20A R23A R26A
- Kd [3]: 194 nM

Variant: chain 1 R32A
- screen value [2]: -2.2 kcal/mol/K
- ddG [3]: -0.5 kcal/mol
- screen value [3]: -12.7 kcal/mol
- ratio to parent [3]: 0.4

Variant: chain 1 Y36L
- screen value [2]: -0.9 kcal/mol/K
- ddG [3]: -0.02 kcal/mol
- screen value [3]: -10.9 kcal/mol
- ratio to parent [3]: 1.1

Variant: chain 1 Y36A
- Kd [3]: 143 nM

Variant: chain 1 R19K R20K R23K R26K
- screen value [2]: -2.8 kcal/mol/K
- ddG [3]: -0.05 kcal/mol
- screen value [3]: -12.8 kcal/mol
- Kd [3]: 36 nM
- ratio to parent [3]: 1.1

Variant: chain 1 R31A
- screen value [2]: -1.8 kcal/mol/K
- ddG [3]: 0.07 kcal/mol
- screen value [3]: -11.7 kcal/mol
- ratio to parent [3]: 1.1
